Paper doi:10.1101/2024.07.03.601791 (bioRxiv, 2024)
Several values for one entry are separate records, joined by “and”; a condition that tells them apart may be missing. Identical values can stand only once.

Assays:
Karyopherinβ2 (Kapβ2) [1] = target: T1, Karyopherinβ2 (Kapβ2) (human, UniProt Q92973-2 1-890); test: AUC
T1 sequence (looked up): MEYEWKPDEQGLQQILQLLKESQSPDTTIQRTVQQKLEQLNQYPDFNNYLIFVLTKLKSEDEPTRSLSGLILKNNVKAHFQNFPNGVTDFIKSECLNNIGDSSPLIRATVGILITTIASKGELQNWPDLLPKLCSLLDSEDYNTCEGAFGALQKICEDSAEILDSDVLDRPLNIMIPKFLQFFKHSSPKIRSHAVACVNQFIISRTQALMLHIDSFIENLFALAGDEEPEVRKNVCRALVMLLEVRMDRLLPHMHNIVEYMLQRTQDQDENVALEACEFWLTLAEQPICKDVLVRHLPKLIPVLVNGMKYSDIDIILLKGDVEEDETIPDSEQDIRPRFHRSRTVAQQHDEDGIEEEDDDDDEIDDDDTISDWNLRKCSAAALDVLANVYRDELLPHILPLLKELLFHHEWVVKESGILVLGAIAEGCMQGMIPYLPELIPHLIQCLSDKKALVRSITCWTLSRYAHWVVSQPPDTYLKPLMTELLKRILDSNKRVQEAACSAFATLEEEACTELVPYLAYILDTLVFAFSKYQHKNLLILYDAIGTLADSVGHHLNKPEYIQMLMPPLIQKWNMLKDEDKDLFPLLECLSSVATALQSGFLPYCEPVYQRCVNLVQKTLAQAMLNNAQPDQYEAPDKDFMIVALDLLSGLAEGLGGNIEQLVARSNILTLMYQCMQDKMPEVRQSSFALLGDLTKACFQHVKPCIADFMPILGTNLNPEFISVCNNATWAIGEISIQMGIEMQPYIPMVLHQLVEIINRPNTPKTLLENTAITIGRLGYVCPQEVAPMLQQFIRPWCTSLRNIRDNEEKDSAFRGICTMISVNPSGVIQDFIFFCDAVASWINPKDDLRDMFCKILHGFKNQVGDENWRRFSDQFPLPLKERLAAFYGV

Karyopherinβ2 (Kapβ2) [2] = target: T1, Karyopherinβ2 (Kapβ2); test: SEC
Karyopherinβ2 (Kapβ2) [3] = target: T1, Karyopherinβ2 (Kapβ2); test: hydrogel binding assay
[4] = target: T2, mCherry fusion LC-domain of FUS (residue 2–214, mCh:FUS-LC) (UniProt P35637 2-214); test: hydrogel binding assay
T2 sequence (looked up): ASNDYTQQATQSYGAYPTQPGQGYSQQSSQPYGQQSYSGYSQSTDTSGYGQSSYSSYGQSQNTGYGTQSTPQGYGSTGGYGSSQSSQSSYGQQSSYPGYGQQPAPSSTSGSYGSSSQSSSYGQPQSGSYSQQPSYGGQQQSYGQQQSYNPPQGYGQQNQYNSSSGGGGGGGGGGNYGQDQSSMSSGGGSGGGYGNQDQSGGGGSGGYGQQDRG

GTP-bound Ran (Q69L) = GTP-bound Ran (Q69L) (UniProt P62826 1-216, Q69L); test: pull-down
Karyopherinβ2 (Kapβ2) [5] = target: T1, Karyopherinβ2 (Kapβ2); test: chemical tongue

With PRPRPRPRPRPRPRPRPRPRPRPRPRPRPRPRPRPR [maltose-binding protein (MBP)-PR18] the “stoichiometry N” value (Karyopherinβ2 (Kapβ2) [1]) was 1 and ≥ 2 and the “stoichiometry N” value (Karyopherinβ2 (Kapβ2) [2]) was 2.

PRPRPRPRPRPRPRPRPRPRPRPRPRPRPRPRPRPRPRPR [GFP fusion 20 repeats of PR (GFP:PR20)]: binds (Karyopherinβ2 (Kapβ2) [3]); binds [4].

B1: GST-Kapβ2 (natural protein)
chain: T1 sequence (looked up)
B1: binds (GTP-bound Ran (Q69L)).

PRPRPRPRPRPRPRPRPRPRPRPRPRPRPRPRPRPRPRPR [PR20]: binds (Karyopherinβ2 (Kapβ2) [5]).

GRGRGRGRGRGRGRGRGRGRGRGRGRGRGRGRGRGRGRGR [GR20]: binds (Karyopherinβ2 (Kapβ2) [5]).
